Drawing on doi:10.1101/2025.11.05.686826, this text covers stoichiometry N for 1 substance.

For the assay, the target named is Prometheoarchaeum syntrophicum rubisco (Prometheoarchaeum syntrophicum). Nature of the assay: SEC-SAXS.

As for “Prometheoarchaeum syntrophicum rubisco (enzyme)”, the stoichiometry N (as a rule, the number of molecules, sites or subunits per partner or assembly) was 2.
